Test results taken from patent publication US20180155451A1 (published 2018).

T1: FcγRIIb extracellular domain with C-terminal His tag (human, UniProt P31994 43-217)
T1 construct: extracellular domain; also called FcgRIIb; 2b; not shown: His tag at the C terminus
T1 sequence (looked up): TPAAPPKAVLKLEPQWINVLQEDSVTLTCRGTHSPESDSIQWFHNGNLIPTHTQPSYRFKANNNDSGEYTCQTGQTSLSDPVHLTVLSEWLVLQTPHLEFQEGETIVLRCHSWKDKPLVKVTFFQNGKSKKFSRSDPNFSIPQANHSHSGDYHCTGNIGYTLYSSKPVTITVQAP

T2: FcγRIIb (human, UniProt P31994 43-217)
T2 construct: extracellular domain; also called FcgRIIb; 2b
T2 sequence (looked up): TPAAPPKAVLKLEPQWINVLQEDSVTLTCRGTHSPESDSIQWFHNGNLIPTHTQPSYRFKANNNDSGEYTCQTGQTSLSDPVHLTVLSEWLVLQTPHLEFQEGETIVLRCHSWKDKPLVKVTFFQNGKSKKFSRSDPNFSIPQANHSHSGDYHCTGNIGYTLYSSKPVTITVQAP

T3: FcγRIIa H (human, UniProt P12318 34-217)
T3 construct: extracellular domain; also called FcgRIIa H type; 2aH
T3 sequence (looked up): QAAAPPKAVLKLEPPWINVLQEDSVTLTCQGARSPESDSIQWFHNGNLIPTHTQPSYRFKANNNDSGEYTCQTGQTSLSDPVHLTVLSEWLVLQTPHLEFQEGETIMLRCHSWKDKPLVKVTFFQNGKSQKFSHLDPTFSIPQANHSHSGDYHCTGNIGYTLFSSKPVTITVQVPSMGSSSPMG


Tests used:
[1] = target: T4, FcγRIIIa extracellular domain with C-terminal His tag (human, UniProt P08637 17-208); assay: SPR (Biacore), antibody captured via antigen peptide, FcγR as analyte; binding relative to GpH7-A5/GpH7-B3/GpL16-k0 = 100
T4 construct: extracellular domain; also called FcgRIIIa; 3a; not shown: His tag at the C terminus
T4 sequence (P08637 17-208): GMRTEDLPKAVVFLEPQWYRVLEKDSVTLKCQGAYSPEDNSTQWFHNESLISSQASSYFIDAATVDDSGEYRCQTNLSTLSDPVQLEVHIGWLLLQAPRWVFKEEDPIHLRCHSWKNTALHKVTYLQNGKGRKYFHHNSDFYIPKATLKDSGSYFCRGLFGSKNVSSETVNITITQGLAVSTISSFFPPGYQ

[2] = target: T1, FcγRIIb extracellular domain with …; assay: as above
FcγRIIb = target: T2, FcγRIIb; assay: SPR (Biacore), antibody captured on antigen-peptide chip, FcγR as analyte; binding relative to GpH7-A5/GpH7-B3/GpL16-k0 = 100
FcγRIIa H = target: T3, FcγRIIa H; assay: as above

He/Con_3a [1]	He/Con_2b [2]	He/Con_2b (FcγRIIb)	He/Con_2aH (FcγRIIa H)	Binder
160 relative (control = 100)	94.8 relative (control = 100)			GpH7-A5/GpH7-B3 variant K334_09D/GpL16-k0 (antibody, human IgG1, kappa, He Ab: the mutation stands only in the GpH7-B3-derived H chain; also called He Ab K334D) heavy 1: not shown heavy 2: not shown light: DIVMTQSPLSLPVTPGEPASISCQASESLVHSNRNTYLHWYLQKPGQSPQLLIYKVSNRFSGVPDRFSGSGSGTDFTLKISRVEAEDVGVYYCSQNTHVPPTFGQGTKVEIERTVAAPSVFIFPPSDEQLKSGTASVVCLLNNFYPREAKVQWKVDNALQSGNSQESVTEQDSKDSTYSLSSTLTLSKADYEKHKVYACEVTHQGLSSPVTKSFNRGEC
108 relative (control = 100)	89.5 relative (control = 100)			GpH7-A5/GpH7-B3 variant I336_14T/GpL16-k0 (antibody, human IgG1, kappa, He Ab: the mutation stands only in the GpH7-B3-derived H chain; also called He Ab I336T) heavy 1: not shown heavy 2: not shown light: DIVMTQSPLSLPVTPGEPASISCQASESLVHSNRNTYLHWYLQKPGQSPQLLIYKVSNRFSGVPDRFSGSGSGTDFTLKISRVEAEDVGVYYCSQNTHVPPTFGQGTKVEIERTVAAPSVFIFPPSDEQLKSGTASVVCLLNNFYPREAKVQWKVDNALQSGNSQESVTEQDSKDSTYSLSSTLTLSKADYEKHKVYACEVTHQGLSSPVTKSFNRGEC
		90.3 % of HeCon Ab	102 % of HeCon Ab	GpH7-A5/GpH7-B3 variant I336_03V/GpL16-k0 (antibody, human IgG1, kappa, Heterodimerized anti-glypican-3 IgG1; substitution in only one H chain (the GpH7-B3 chain); also called He Ab) heavy 1: not shown heavy 2: not shown light: DIVMTQSPLSLPVTPGEPASISCQASESLVHSNRNTYLHWYLQKPGQSPQLLIYKVSNRFSGVPDRFSGSGSGTDFTLKISRVEAEDVGVYYCSQNTHVPPTFGQGTKVEIERTVAAPSVFIFPPSDEQLKSGTASVVCLLNNFYPREAKVQWKVDNALQSGNSQESVTEQDSKDSTYSLSSTLTLSKADYEKHKVYACEVTHQGLSSPVTKSFNRGEC
		94.3 % of HeCon Ab	103 % of HeCon Ab	GpH7-A5/GpH7-B3 variant E333_09D/GpL16-k0 (antibody, human IgG1, kappa, Heterodimerized anti-glypican-3 IgG1; substitution in only one H chain (the GpH7-B3 chain); also called He Ab) heavy 1: not shown heavy 2: not shown light: DIVMTQSPLSLPVTPGEPASISCQASESLVHSNRNTYLHWYLQKPGQSPQLLIYKVSNRFSGVPDRFSGSGSGTDFTLKISRVEAEDVGVYYCSQNTHVPPTFGQGTKVEIERTVAAPSVFIFPPSDEQLKSGTASVVCLLNNFYPREAKVQWKVDNALQSGNSQESVTEQDSKDSTYSLSSTLTLSKADYEKHKVYACEVTHQGLSSPVTKSFNRGEC
		95 % of HeCon Ab	102 % of HeCon Ab	GpH7-A5/GpH7-B3 variant E333_08L/GpL16-k0 (antibody, human IgG1, kappa, Heterodimerized anti-glypican-3 IgG1; substitution in only one H chain (the GpH7-B3 chain); also called He Ab) heavy 1: not shown heavy 2: not shown light: DIVMTQSPLSLPVTPGEPASISCQASESLVHSNRNTYLHWYLQKPGQSPQLLIYKVSNRFSGVPDRFSGSGSGTDFTLKISRVEAEDVGVYYCSQNTHVPPTFGQGTKVEIERTVAAPSVFIFPPSDEQLKSGTASVVCLLNNFYPREAKVQWKVDNALQSGNSQESVTEQDSKDSTYSLSSTLTLSKADYEKHKVYACEVTHQGLSSPVTKSFNRGEC
119 relative (control = 100)	89.8 relative (control = 100)			GpH7-A5/GpH7-B3 variant I336_10E/GpL16-k0 (antibody, human IgG1, kappa, He Ab: the mutation stands only in the GpH7-B3-derived H chain; also called He Ab I336E) heavy 1: not shown heavy 2: not shown light: DIVMTQSPLSLPVTPGEPASISCQASESLVHSNRNTYLHWYLQKPGQSPQLLIYKVSNRFSGVPDRFSGSGSGTDFTLKISRVEAEDVGVYYCSQNTHVPPTFGQGTKVEIERTVAAPSVFIFPPSDEQLKSGTASVVCLLNNFYPREAKVQWKVDNALQSGNSQESVTEQDSKDSTYSLSSTLTLSKADYEKHKVYACEVTHQGLSSPVTKSFNRGEC
102 relative (control = 100)	83.7 relative (control = 100)			GpH7-A5/GpH7-B3 variant I336_13S/GpL16-k0 (antibody, human IgG1, kappa, He Ab: the mutation stands only in the GpH7-B3-derived H chain; also called He Ab I336S) heavy 1: not shown heavy 2: not shown light: DIVMTQSPLSLPVTPGEPASISCQASESLVHSNRNTYLHWYLQKPGQSPQLLIYKVSNRFSGVPDRFSGSGSGTDFTLKISRVEAEDVGVYYCSQNTHVPPTFGQGTKVEIERTVAAPSVFIFPPSDEQLKSGTASVVCLLNNFYPREAKVQWKVDNALQSGNSQESVTEQDSKDSTYSLSSTLTLSKADYEKHKVYACEVTHQGLSSPVTKSFNRGEC
104 relative (control = 100)	97.6 relative (control = 100)			GpH7-A5/GpH7-B3 variant I336_18N/GpL16-k0 (antibody, human IgG1, kappa, He Ab: the mutation stands only in the GpH7-B3-derived H chain; also called He Ab I336N) heavy 1: not shown heavy 2: not shown light: DIVMTQSPLSLPVTPGEPASISCQASESLVHSNRNTYLHWYLQKPGQSPQLLIYKVSNRFSGVPDRFSGSGSGTDFTLKISRVEAEDVGVYYCSQNTHVPPTFGQGTKVEIERTVAAPSVFIFPPSDEQLKSGTASVVCLLNNFYPREAKVQWKVDNALQSGNSQESVTEQDSKDSTYSLSSTLTLSKADYEKHKVYACEVTHQGLSSPVTKSFNRGEC
121 relative (control = 100)	92.5 relative (control = 100)			GpH7-A5/GpH7-B3 variant K334_01G/GpL16-k0 (antibody, human IgG1, kappa, He Ab: the mutation stands only in the GpH7-B3-derived H chain; also called He Ab K334G) heavy 1: not shown heavy 2: not shown light: DIVMTQSPLSLPVTPGEPASISCQASESLVHSNRNTYLHWYLQKPGQSPQLLIYKVSNRFSGVPDRFSGSGSGTDFTLKISRVEAEDVGVYYCSQNTHVPPTFGQGTKVEIERTVAAPSVFIFPPSDEQLKSGTASVVCLLNNFYPREAKVQWKVDNALQSGNSQESVTEQDSKDSTYSLSSTLTLSKADYEKHKVYACEVTHQGLSSPVTKSFNRGEC
